Consider 13 molecules from US20250313632A1.

Where two headings read alike, the source gives them in different places.

Holding throughout (experiment): flow cytometry on A375 cells, MFI(PE); unit from the axis Conc (nM)
For orientation: Flow cytometry measures light scatter and fluorescence of single cells or particles in a stream.

For test [1], the target named is human B7-H3 expressed on A375 tumor cells (human) (UniProt Q5ZPR3).
Test [2] has the same target. The source holds these as a separate data set.
Test [3] has the same target. The source holds these as a separate data set.

B1: 72D1D11-z7 (antibody, V domains shown)
VH: QVQLVQSGSELKKPGASVKVSCKASGYTFTNLGLNWVRQAPGQGLEWMGWINTAGGQPTYAEDFKGRCVFSLDTSVSTAYLQISSLKAEDTAVYYCARDDGYYYTMDYWGQGTTVTVSS
VL: DIVMTQSPLSLPVTPGEPASISCRSSQSLVHSNGKTYLHWYLQKPGQSPQLLIYKVSNRFSGVPDRFSGSGSGTDFTLKISRVEAEDVGVYYCSQSTHVPWTFGGGTKLEIK
The term EC50 denotes the concentration at which the effect is half-maximal. With B1, the EC50 in test [1] was found to be 0.52 nM.

B2: 72D1D11-z14 (antibody, V domains shown)
VH: QIQLVQSGSELKKPGASVKVSCKASGYTFTNLGLNWVKQAPGQGLKWMGWINTAGGQPTYAEDFKGRCVFSLDTSVSTAYLQISSLKAEDTAVYFCARDDGYYYTMDYWGQGTTVTVSS
VL: DIVMTQTPLSLPVTPGEPASISCRSSQSLVHSNGKTYLHWYLQKPGQSPQLLIYKVSNRFSGVPDRFSGSGSGTDFTLKISRVEAEDVGVYFCSQSTHVPWTFGGGTKLEIK
B2 yielded an EC50 in test [2] of 0.57 nM.

B3: 72D1D11-z12 (antibody, V domains shown)
VH: QVQLVQSGSELKKPGASVKVSCKASGYTFTNLGLNWVRQAPGQGLKWMGWINTAGGQPTYAEDFKGRCVFSLDTSVSTAYLQISSLKAEDTAVYFCARDDGYYYTMDYWGQGTTVTVSS
VL: DIVMTQSPLSLPVTPGEPASISCRSSQSLVHSNGKTYLHWYLQKPGQSPQLLIYKVSNRFSGVPDRFSGSGSGTDFTLKISRVEAEDVGVYFCSQSTHVPWTFGGGTKLEIK
In turn, B3 gave an EC50 in test [2] of 0.35 nM.

B4: 72D1D11-z16 (antibody, V domains shown)
VH: QIQLVQSGSELKKPGASVKVSCKASGYTFTNLGLNWVKQAPGQGLKWMGWINTAGGQPTYAEDFKGRCVFSLDTSVSTAYLQISSLKAEDTAVYFCARDDGYYYTMDYWGQGTTVTVSS
VL: DIVMTQSPLSLPVTPGEPASISCRSSQSLVHSNGKTYLHWYLQKPGQSPQLLIYKVSNRFSGVPDRFSGSGSGTDFTLKISRVEAEDVGVYFCSQSTHVPWTFGGGTKLEIK
B4 displayed an EC50 in test [2] of 0.32 nM.

B5: 72D1D11-z11 (antibody, V domains shown)
VH: QVQLVQSGSELKKPGASVKVSCKASGYTFTNLGLNWVRQAPGQGLKWMGWINTAGGQPTYAEDFKGRCVFSLDTSVSTAYLQISSLKAEDTAVYFCARDDGYYYTMDYWGQGTTVTVSS
VL: DIVMTQSPLSLPVTPGEPASISCRSSQSLVHSNGKTYLHWYLQKPGQSPQLLIYKVSNRFSGVPDRFSGSGSGTDFTLKISRVEAEDVGVYYCSQSTHVPWTFGGGTKLEIK
B5 gave an EC50 in test [2] of 0.36 nM.

B6: 72D1D11-z8 (antibody, V domains shown)
VH: QVQLVQSGSELKKPGASVKVSCKASGYTFTNLGLNWVRQAPGQGLEWMGWINTAGGQPTYAEDFKGRCVFSLDTSVSTAYLQISSLKAEDTAVYYCARDDGYYYTMDYWGQGTTVTVSS
VL: DIVMTQSPLSLPVTPGEPASISCRSSQSLVHSNGKTYLHWYLQKPGQSPQLLIYKVSNRFSGVPDRFSGSGSGTDFTLKISRVEAEDVGVYFCSQSTHVPWTFGGGTKLEIK
Take B6: the EC50 in test [1] amounted to 0.46 nM.

B7: 72D1D11-z15 (antibody, V domains shown)
VH: QIQLVQSGSELKKPGASVKVSCKASGYTFTNLGLNWVKQAPGQGLKWMGWINTAGGQPTYAEDFKGRCVFSLDTSVSTAYLQISSLKAEDTAVYFCARDDGYYYTMDYWGQGTTVTVSS
VL: DIVMTQSPLSLPVTPGEPASISCRSSQSLVHSNGKTYLHWYLQKPGQSPQLLIYKVSNRFSGVPDRFSGSGSGTDFTLKISRVEAEDVGVYYCSQSTHVPWTFGGGTKLEIK
On to B7, for which the 50% effective concentration (EC50) in test [2] turned out to be 0.47 nM.

B8: 72D1D11-z13 (antibody, V domains shown)
VH: QIQLVQSGSELKKPGASVKVSCKASGYTFTNLGLNWVKQAPGQGLKWMGWINTAGGQPTYAEDFKGRCVFSLDTSVSTAYLQISSLKAEDTAVYFCARDDGYYYTMDYWGQGTTVTVSS
VL: DIVMTQTPLSLPVTPGEPASISCRSSQSLVHSNGKTYLHWYLQKPGQSPQLLIYKVSNRFSGVPDRFSGSGSGTDFTLKISRVEAEDVGVYYCSQSTHVPWTFGGGTKLEIK
Regarding B8, the EC50 in test [2] worked out at 0.36 nM.

B9: 72D1D11-z9 (antibody, V domains shown)
VH: QVQLVQSGSELKKPGASVKVSCKASGYTFTNLGLNWVRQAPGQGLKWMGWINTAGGQPTYAEDFKGRCVFSLDTSVSTAYLQISSLKAEDTAVYFCARDDGYYYTMDYWGQGTTVTVSS
VL: DIVMTQTPLSLPVTPGEPASISCRSSQSLVHSNGKTYLHWYLQKPGQSPQLLIYKVSNRFSGVPDRFSGSGSGTDFTLKISRVEAEDVGVYYCSQSTHVPWTFGGGTKLEIK
In turn, B9 showed an EC50 in test [2] of 0.51 nM.

B10: 81C8A1-z3 (antibody, V domains shown)
VH: QVTLKESGPALVKPTQTLTLTCTFSGFSLSTSGMGVSWIRQPPGKALEWLAHIYWDDDRRYNPSLKSRLTISKDTSKNQVVLTMTNMDPVDTATYYCARSPYGSEAYWGQGTLVTVSS
VL: EIVLTQSPDFQSVTPKEKVTITCRASSSVSFIQWYQQKPDQSPKPWIYSPSNLASGVPSRFSGSGSGTDFTLTINSLEAEDAATYYCQQWSSYPWTFGQGTKVEIK
Turning to B10, the EC50 in test [3] stood at 0.23 nM.

B11: 81C8A1-z4 (antibody, V domains shown)
VH: QVTLKESGPALVKPTQTLTLTCTFSGFSLSTSGMGVSWIRQPPGKALEWLAHIYWDDDRRYNPSLKSRLTISKDTSKNQVVLTMTNMDPVDTATYYCARSPYGSEAYWGQGTLVTVSS
VL: EIVLSQSPDFQSVTPKEKVTITCRASSSVSFIQWYQQKPDQSPKPWIYSPSNLASGVPSRFSGSGSGTDYTLTINSLEAEDAATYYCQQWSSYPWTFGQGTKVEIK
In test [3], B11 gave an EC50 of 0.28 nM.

B12: 81C8A1-z7 (antibody, V domains shown)
VH: QVTLKESGPALVKPTQTLTLTCTFSGFSLSTSGMGVSWIRQPPGKALEWLAHIYWDDDRRYNPSLKSRLTISRDTSKNQVVLTMTNMDPVDTATYYCARSPYGSEAYWGQGTLVTVSS
VL: EIVLTQSPDFQSVTPKEKVTITCRASSSVSFIQWYQQKPDQSPKPWIYSPSNLASGVPSRFSGSGSGTDFTLTINSLEAEDAATYYCQQWSSYPWTFGQGTKVEIK
With B12, the EC50 in test [3] worked out at 0.39 nM.

B13: 81C8A1-z8 (antibody, V domains shown)
VH: QVTLKESGPALVKPTQTLTLTCTFSGFSLSTSGMGVSWIRQPPGKALEWLAHIYWDDDRRYNPSLKSRLTISRDTSKNQVVLTMTNMDPVDTATYYCARSPYGSEAYWGQGTLVTVSS
VL: EIVLSQSPDFQSVTPKEKVTITCRASSSVSFIQWYQQKPDQSPKPWIYSPSNLASGVPSRFSGSGSGTDYTLTINSLEAEDAATYYCQQWSSYPWTFGQGTKVEIK
On to B13, for which, in test [3], the EC50 worked out at 0.25 nM.
